Article PMC10643145, “Structure and activation of the RING E3 ubiquitin ligase TRIM72 on the membrane” (Nature Structural & Molecular Biology, 2023)
Changes are numbered by the printed parent chain.

Key:
[1] = molecular target: the molecule itself; test: SEC-MALS; Superdex 200 Increase 10/300 GL; 50 mM Tris-HCl pH 8.0, 300 mM NaCl, 2 mM TCEP; TRIM72 WT at 11.2, 5.6 and 2.8 mg/ml; dimer in solution
[2] = molecular target: the molecule itself; test: cryo-EM structure; cryo-ET and subtomogram averaging of proteoliposomes (80 mol% DOPS, 20 mol% cholesterol); 50 mM Tris-HCl pH 8.0, 150 mM NaCl, 1 mM TCEP; higher-order assembly of dimers on the lipid bilayer
[3] = molecular target: the molecule itself; test: cross-linking; time-dependent cross-linking of TRIM72 WT purified from mammalian cells (copurified with endogenous microvesicles)

B1: mouse TRIM72 wild type (tripartite motif-containing protein 72) (natural protein, UniProt Q1XH17 1-477, looked up)
chain: MSAAPGLLRQELSCPLCLQLFDAPVTAECGHSFCRACLIRVAGEPAADGTVACPCCQAPTRPQALSTNLQLSRLVEGLAQVPQGHCEEHLDPLSIYCEQDRTLVCGVCASLGSHRGHRLLPAAEAQARLKTQLPQQKMQLQEACMRKEKTVAVLEHQLVEVEETVRQFRGAVGEQLGKMRMFLAALESSLDREAERVRGDAGVALRRELSSLNSYLEQLRQMEKVLEEVADKPQTEFLMKFCLVTSRLQKILSESPPPARLDIQLPVISDDFKFQVWKKMFRALMPALEELTFDPSSAHPSLVVSSSGRRVECSDQKAPPAGEDTRQFDKAVAVVAQQLLSQGEHYWEVEVGDKPRWALGVMAADASRRGRLHAVPSQGLWLLGLRDGKILEAHVEAKEPRALRTPERPPARIGLYLSFADGVLAFYDASNPDVLTPIFSFHERLPGPVYPIFDVCWHDKGKNAQPLLLVGPEQEQA
notes: TRIM72 (MG53), Mus musculus, wild type, full length; Tight dimer in solution by SEC-MALS; higher-order assembly only on PS liposomes; also called TRIM72 WT; MG53; source: E. coli BL21(DE3), purified (AC, IEX, SEC); not shown: His6, N-terminal, cleaved; MBP, N-terminal, cleaved
- stoichiometry N [1]: 2

B2: mouse TRIM72^M138R (natural protein, UniProt Q1XH17 1-477, looked up)
chain: B1 chain with M138R
notes: TRIM72, Mus musculus, mutation on the outer side of the H1 helix of the coiled-coil domain; source: E. coli BL21(DE3), purified (AC, IEX, SEC); not shown: His6, N-terminal, cleaved; MBP, N-terminal, cleaved
- binding result [2]: binds

B3: human TRIM72 wild type, 2× Strep-tagged (natural protein, UniProt Q6ZMU5 1-477, looked up)
chain: MSAAPGLLHQELSCPLCLQLFDAPVTAECGHSFCRACLGRVAGEPAADGTVLCPCCQAPTRPQALSTNLQLARLVEGLAQVPQGHCEEHLDPLSIYCEQDRALVCGVCASLGSHRGHRLLPAAEAHARLKTQLPQQKLQLQEACMRKEKSVAVLEHQLVEVEETVRQFRGAVGEQLGKMRVFLAALEGSLDREAERVRGEAGVALRRELGSLNSYLEQLRQMEKVLEEVADKPQTEFLMKYCLVTSRLQKILAESPPPARLDIQLPIISDDFKFQVWRKMFRALMPALEELTFDPSSAHPSLVVSSSGRRVECSEQKAPPAGEDPRQFDKAVAVVAHQQLSEGEHYWEVDVGDKPRWALGVIAAEAPRRGRLHAVPSQGLWLLGLREGKILEAHVEAKEPRALRSPERRPTRIGLYLSFGDGVLSFYDASDADALVPLFAFHERLPRPVYPFFDVCWHDKGKNAQPLLLVGPEGAEA
notes: TRIM72 (MG53), human, wild type, full length; Copurified with endogenous microvesicles of about 100 nm; also called TRIM72 WT purified from mammalian cells; mammalian-expressed human TRIM72; source: HEK293T, transfected (polyethyleneimine), purified (StrepTrap HP, SEC on Superose 6 Increase)
- binding result [3]: binds
